Assay results as given in patent publication US20050260216A1 (published 2005).

T1: human type-2 IL-4 receptor (on A549 cells) (human, UniProt P24394 26-825; P78552 22-427)
T1 sequence (looked up) 1: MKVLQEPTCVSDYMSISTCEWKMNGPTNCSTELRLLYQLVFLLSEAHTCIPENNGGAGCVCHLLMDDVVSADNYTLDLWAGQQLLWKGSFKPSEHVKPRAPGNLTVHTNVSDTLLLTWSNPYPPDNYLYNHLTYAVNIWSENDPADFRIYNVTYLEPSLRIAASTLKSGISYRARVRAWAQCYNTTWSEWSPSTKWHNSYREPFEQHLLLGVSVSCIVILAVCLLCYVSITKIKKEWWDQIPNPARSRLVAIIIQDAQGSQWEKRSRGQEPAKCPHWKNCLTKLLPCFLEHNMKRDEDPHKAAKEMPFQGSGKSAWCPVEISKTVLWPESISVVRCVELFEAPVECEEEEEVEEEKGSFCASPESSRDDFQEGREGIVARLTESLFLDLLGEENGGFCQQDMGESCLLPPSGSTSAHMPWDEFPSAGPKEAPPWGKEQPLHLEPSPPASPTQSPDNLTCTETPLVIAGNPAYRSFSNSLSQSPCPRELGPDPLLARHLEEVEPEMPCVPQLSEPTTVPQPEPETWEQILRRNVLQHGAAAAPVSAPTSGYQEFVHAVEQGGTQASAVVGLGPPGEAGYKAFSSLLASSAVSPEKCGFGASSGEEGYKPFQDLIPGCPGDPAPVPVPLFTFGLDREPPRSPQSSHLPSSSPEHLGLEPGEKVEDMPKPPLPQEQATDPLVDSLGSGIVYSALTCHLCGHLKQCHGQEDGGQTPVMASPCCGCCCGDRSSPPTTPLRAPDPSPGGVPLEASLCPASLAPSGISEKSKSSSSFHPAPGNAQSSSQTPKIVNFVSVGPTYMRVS
T1 sequence (looked up) 2: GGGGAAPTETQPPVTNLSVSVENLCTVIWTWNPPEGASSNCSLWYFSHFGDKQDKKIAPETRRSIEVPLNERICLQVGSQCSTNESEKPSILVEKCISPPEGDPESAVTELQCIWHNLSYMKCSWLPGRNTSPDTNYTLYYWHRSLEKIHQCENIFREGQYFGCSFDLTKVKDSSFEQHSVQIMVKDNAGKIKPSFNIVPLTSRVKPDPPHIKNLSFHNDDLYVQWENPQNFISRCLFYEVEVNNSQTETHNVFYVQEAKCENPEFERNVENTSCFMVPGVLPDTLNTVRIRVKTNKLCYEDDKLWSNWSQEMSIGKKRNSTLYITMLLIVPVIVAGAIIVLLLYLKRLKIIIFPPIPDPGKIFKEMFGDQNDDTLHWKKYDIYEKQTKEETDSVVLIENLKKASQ

B1: chimaeric IL-13 (free cIL-13 generated from GST-cIL-13 by thrombin cleavage) (ligand)
chain: GPVPRSVSLPLTLRELIEELVNITQDQTPLCNGSMVWSVDLAAGGYCAALESLTNISNCNAIEKTQRMLGGLCNRKAPTTVSSLPDTKIEVAQFVKDLLSYTKQLFRHGPF

Experiments:
[1] = target: human type-2 IL-4 receptor (on A549 cells) (human) (UniProt P24394); experiment: cell-based or functional assay
[2] = target: T1, human type-2 IL-4 receptor (on A549 …); experiment: cell-based or functional assay

Molecule | phosphorylation of STAT6 in A549 cells (Western blot); lowest active concentration tested [1] [ng/mL] | bioactivity relative to mIL-13 (STAT6 phosphorylation in A549 cells) [2] [fold less than mIL-13]
recombinant mouse IL-13 (catalogue number 413-ML-025, R&D Systems) (from UniProt P20109 26-131) (ligand) | 10 | 
B1 |  | ~5
